From paper PMC9637102, “Structural basis for the activation of the lipid scramblase TMEM16F” (Nature Communications, 2022)
Residue numbers refer to the chain shown, from its start. Names and notes keep the numbering of the source.

B1: murine TMEM16F mutant F518H (natural protein, UniProt Q6P9J9 1-911, looked up)
chain: MQMMTRKVLLNMELEEDDDEDGDIVLENFDQTIVCPTFGSLENQQDFRTPEFEEFNGKPDSLFFTDGQRRIDFILVYEDESKKENNKKGTNEKQKRKRQAYESNLICHGLQLEATRSVSDDKLVFVKVHAPWEVLCTYAEIMHIKLPLKPNDLKTRSPFGNLNWFTKVLRVNESVIKPEQEFFTAPFEKSRMNDFYILDRDSFFNPATRSRIVYFILSRVKYQVMNNVNKFGINRLVSSGIYKAAFPLHDCRFNYESEDISCPSERYLLYREWAHPRSIYKKQPLDLIRKYYGEKIGIYFAWLGYYTQMLLLAAVVGVACFLYGYLDQDNCTWSKEVCDPDIGGQILMCPQCDRLCPFWRLNITCESSKKLCIFDSFGTLIFAVFMGVWVTLFLEFWKRRQAELEYEWDTVELQQEEQARPEYEAQCNHVVINEITQEEERIPFTTCGKCIRVTLCASAVFFWILLIIASVIGIIVYRLSVFIVFSTTLPKNPNGTDPIQKYLTPQMATSITASIISHIIIMILNTIYEKVAIMITNFELPRTQTDYENSLTMKMFLFQFVNYYSSCFYIAFFKGKFVGYPGDPVYLLGKYRSEECDPGGCLLELTTQLTIIMGGKAIWNNIQEVLLPWVMNLIGRYKRVSGSEKITPRWEQDYHLQPMGKLGLFYEYLEMIIQFGFVTLFVASFPLAPLLALVNNILEIRVDAWKLTTQFRRMVPEKAQDIGAWQPIMQGIAILAVVTNAMIIAFTSDMIPRLVYYWSFSIPPYGDHTYYTMDGYINNTLSVFNITDFKNTDKENPYIGLGNYTLCRYRDFRNPPGHPQEYKHNIYYWHVIAAKLAFIIVMEHIIYSVKFFISYAIPDVSKITKSKIKREKYLTQKLLHESHLKDLTKNMGIIAERIGGTVDNSVRPKLE
notes: TMEM16F (anoctamin-6), murine; point mutant F518H; A 3C recognition site stands between TMEM16F and the C-terminal Myc and SBP tags; no cleavage is described; also called F518H^noCa; F518H^Ca; source: TMEM16F KO cells in suspension culture, transient transfection (PEI MAX); purified (Strep-tactin, SEC on Superose 6) in digitonin, or reconstituted into MSP 2N2 nanodiscs (3 POPC:1 POPG)
B2: murine TMEM16F double mutant F518A/Q623A (natural protein, UniProt Q6P9J9 1-911, looked up)
chain: B1 chain with H518A, Q623A
notes: TMEM16F (anoctamin-6), murine; double mutant F518A and Q623A; A 3C recognition site stands between TMEM16F and the C-terminal Myc and SBP tags; no cleavage is described; source: TMEM16F KO cells in suspension culture, transient transfection (PEI MAX); purified (Strep-tactin, SEC on Superose 6) in GDN
B3: murine TMEM16F mutant N562A (natural protein, UniProt Q6P9J9 1-911, looked up)
chain: B1 chain with H518F, N562A
notes: TMEM16F (anoctamin-6), murine; point mutant N562A; A 3C recognition site stands between TMEM16F and the C-terminal Myc and SBP tags; no cleavage is described; also called N562A^Ca; N562A^Cacc; source: TMEM16F KO cells in suspension culture, transient transfection (PEI MAX); purified (Strep-tactin, SEC on Superose 6) in digitonin

Legend:
[1] = target: the molecule itself; test: cryo-EM structure; protein in digitonin (20 mM HEPES pH 7.4, 150 mM NaCl, 2 mM EGTA, 0.1% digitonin), 1.5-2 mg/ml; Ca2+-free, or with 2 mM free CaCl2 and 0.01 mM diC8-PI(4,5)P2; homodimer
[2] = target: the molecule itself; test: cryo-EM structure; protein in GDN (0.03% in the SEC buffer), Ca2+-bound; homodimer

| Protein | binding result [1] | binding result [2] |
| --- | --- | --- |
| B1 | binds | – |
| B2 | – | binds |
| B3 | binds | – |
